Measurements from patent US9872921B2, “DE-N-acetyl sialic acid antigens, antibodies thereto, and methods of use in cancer therapy” (priority 2004, dated 2018).

Experiments:
human tumors = experiment: Immunohistochemistry on formalin-fixed paraffin embedded tissue microarrays of human tumors; conditions: primary antibody 1 to 5 μg/ml; 47 human tumors
Description: Initial immunohistochemical analysis of antigens recognized by SEAM 3 was performed on unfixed tissues out of concern that the de-N-acetyl amino groups could be blocked by reaction with formaldehyde (vide supra). Subsequently, it was determined that the amino group in de-N-acetyl sialic acid is relatively unreactive as a result of its close proximity to the C1 carboxyl group. Therefore, large scale screening of human tumors for the presence of SEAM 3-reactive antigens was performed using formalin-fixed paraffin embedded tissue sections since processing the samples by this method considerably improves the preservation of cell structural features.
Human tissue microarrays were obtained from US BioMax (Rockville, Md.). The tissue microarrays were deparaffinized in xylene (2 changes, 10 minutes each) then rehydrated by sequential 5 minute washes in 100% ethanol, 95% ethanol, 70% ethanol, 50% ethanol, and PBS buffer. Endogenous peroxidase was blocked by incubation with Peroxidazed 1 solution (Biocare, Concord, Calif.) for 5 minutes at ambient temperature. The sections were blocked with Terminator (Biocare) containing streptavidin then rinsed with PBS buffer. […]

[1] = HPTLC / Western blot reactivity with gangliosides extracted from SK-MEL-28 cells grown with N-trichloroacetyl mannosamine; type: binding, human; conditions: mAbs 5 μg/ml; lanes 2 and 5
Description: SK-Mel-28 cells were grown on square 245 mm×245 mm bioassay dish (Corning) until near confluent. Growth medium (RPMI supplemented with 5 mM glutamine, 1 mM sodium pyruvate, 0.1 mM non-essential amino acids, 10% fetal bovine serum, and antibiotics) was replaced with growth medium containing trichloroacetyl mannosamine (5 mM) for 24 hours, after which cells were washed three times with PBS and lysed by hypotonic shock in distilled water (1 hour at 4° C.). This was followed by 3 cycles of freeze/thawing using ethanol on dry ice/37° C. water bath. The crude membrane fraction was pelleted by centrifugation at 4500 g for 20 minutes at 4° C. The pellet was lyophilized and the lipids extracted by stepwise washing with methanol/chloroform (1:2, 1:1, 2:1 by volume) for 30 minutes (Geilen et al 1992, Arch. Biochem. Biophys. 296, 108-114). The organic phase was dried under a steady stream of oxygen-free nitrogen gas and resuspended in 200 μl of chloroform/methanol/0.02% CaCl2 (50:40:10).
Lipids in the extract and in chemically de-N-acylated GD3 were analyzed by separation on high performance thin layer chromatography (HPTLC) and Western blot. […]

normal tissues = experiment: Immunohistochemistry on micro array of normal tissues; parameters: species or system human; conditions: 17 samples
Description: Human tissue microarrays were obtained from US BioMax (Rockville, Md.). The tissue microarrays were deparaffinized in xylene (2 changes, 10 minutes each) then rehydrated by sequential 5 minute washes in 100% ethanol, 95% ethanol, 70% ethanol, 50% ethanol, and PBS buffer. Endogenous peroxidase was blocked by incubation with Peroxidazed 1 solution (Biocare, Concord, Calif.) for 5 minutes at ambient temperature. The sections were blocked with Terminator (Biocare) containing streptavidin then rinsed with PBS buffer. The primary antibody (purified SEAM 3 (vide infra), irrelevant IgG2b control, etc. at concentrations of 1 to 5 μg/ml)) was diluted in Da Vinci Green dilution buffer (Biocare) and incubated either overnight at 4 degrees C. or for 1 hour at ambient temperature. The slides were washed 3 times for 10 minutes each with PBS buffer then incubated with biotin conjugated rabbit anti-mouse IgG secondary antibody (5 μg/ml, Vector Labs, Burlingame, Calif.) for 30 minutes at ambient temperature. After washing 3 times for 10 minutes each with PBS buffer, horse radish peroxidase-streptavidin conjugate (Vector Labs) was added and incubated at ambient temperature for 30 minutes. The slides were washed 3 times for 10 minutes each with PBS buffer and incubated with AEC substrate (Vector Labs) containing hydrogen peroxide for color development. […]

B1: SEAM 3: murine anti-N-Pr NmB polysaccharide monoclonal antibody (IgG2b), ATCC Deposit No. HB-12170 (antibody, V domains shown)
VH: EVKLQESGGGLVQPGDSLSLSCAASGFTFTPYYMGWVRQPPGKALEWLGYIRNKANGYTTEYSASVKGRFTISRDNSQSILYLQMNALRAEDSATYYCARYARGTVDSWGQGTTLTVS
VL: DIVMTQSPLTLSVTIGQPASISCKSSQSLLHSNGKTYLNWLLQRPGQSPKLLIYLVSKLESGVPDRFSGSGSGTDFTLKISRVEAEDLGLYYCLQIIHFPHTFGAGTKLELKRA
modifications: mouse
tumor samples positive for binding (human tumors): 38 of 47
reactivity with SK-MEL-28 lipid extract treated with NaBH4 (protecting group removed) [1]: reacts with a different slower moving de-N-acetyl ganglioside derivative
normal tissue samples positive for binding (normal tissues): 15 of 17
staining grade in positive normal tissue samples (normal tissues): + to ++
